Source: the DeepSol protein solubility set

Experiment: soluble on expression in E. coli; label from the status in PepcDB or PDB records

Soluble on expression in E. coli, soluble:
MKRARSANIPGAILHSLAELQDGLNAMIDPSWRAVRSLDNWALAITMESTELLDSYPWKWWKNLNATPDLANVRIELVDIFHFSLSGAMQMRSTPDDEIPAASLKPLKEVMTTFLPAKECTSDPYGFVFFPLTDTQNAIASFRNIIQLANAYRFDVIIECIIYAAEDLGFNLVAYYIAKHTLNCIRQLSGYKDGSYVKVNNGVEDNSLLHNCIKDVSLDEVLDADKYVQAWNSIMANVYEAFQIKESDRKDAERWFALAKENRLAIKA
MSLDPAHTPDPAHPHDQEAAHAEDPARAIGSARLLDVDPLLDDPGTRIVVCCGSGGVGKTTTAAALGLRAAERGRKVVVLTIDPARRLAQSMGIDSLDNIPRRVKGIDDSASGELHAMMLDMKRTFDEIVEAHADRERAAAILSNPFYQSLSAGFAGTQEYMAMEKLGQLRARDEWDLIIVDTPPSRSALDFLDAPKRLGSFLDGKLIRLLTAPAKLGGRAGMKFLNVGMSMMTGTLGKLLGGQLLKDVQTFVAAMDTTFGGFRTRADATYKLLQAPGTAFLVVAAPERDALREAAYFVERLAAEDMPLAGLVLNRVHGSGAAQLSAERALAAAENLDLAADPGSTENLEESRIVDQEGGKAGLRNSPDTYGSSESPADLTPADQTPASSEGSPATDGAVEQLTAGLLILHAERMQLLSREQRTRDRFAALHPEVAVAEVAALPGDVHDLTGLRDIGDRLAANRPELPTSPGGALEHHHHHH
MSLSETLTLSDAKSIIENQIEELAKRNKEPEWMTKIRYKALEEFMKAPLNDPVIDEETLLNFIAKPEIEGIPEKVESLDDLPPEMKDLLDRLGINEVEQKYIAGLAVQTDTGVIYNQFLQEWAKKGLIVLPTEEAVRRYPDIMKEHFLKLFKAGESKLTAYHIAIWNGGIFLYVKENLKVPFPLHLFFLIQESSLAQAPHITIIAEKNSEVHLIEGCTAPILVRHSLHLDMTEAYLHENAKVRLTVLQNWPEYVHTRPMTRAKVGRNAEFINTTVSLGAGKSNIANPKYWVGENGYVELNGVILGQKDWYIDLGGEMHLQGEGGRGINASKSVIMDESTVITRGKIVAEAKKTKGHISCDALLLSDKARMETYPGLVSLVDEAELSHEAAIGKIKEEELFYLMSRGLSEEKATQLIVKGFVEPMLKDIPIEFVVEIKKIIELAVSGGFEGHHHHHH
GSHMMKVEKEIKTNQDIDVVMTIFSDPAFTIPQIFPGIASIKCIEPEIFEAEGKFLAFSYKVKGRVYKGVDEVRIIYDSDRGNGILYIRKKDNNTLQIILEHDNKLTAFLGKPYVSSNLDRLAENIDEIIRLERIKRKI
MKAFNYYAPTEIIFGCGRVQEIGSITAQYGKKALLVTVPEFPEVKELYEKVKKSLRENGVEVVHFDGVIPNPTTDVVTEGANMAKAAGVDVVIGLGGGSSIDTAKAIAVEATHPGTAWDYNCHTPGPTSATLPIIAIGTTAGTGSQCTQCAVITKTSEKDKSAIWHKNIFPKVAIVDPEVTVTMPKSVTAQTGFDAFAHNFEAYLSVKTSPLVEMMAIEAIKMIKEYLPKALENPNDIEARSKMSLADTLGGLTNSNAGVTLPHGLGMQVGGHAPHVSHGQALAIIYPQFTRYTYAWAIEKFAKVGRIFNPALNELSDEEAAKEACVAIDDFLKKIGLWIGFKDVNVTKEQIREIADDGQVLGDYLNNPRVATIDEMYELLMNCYERKE
VQVGNCLQVMWLADRHSDPELYTAAKHCAKTHLAQLQNTEEFLHLPHRLLTDIISDGVPCSQNPTEAIEAWINFNKEEREAFAESLRTSLKEIGENVH
MFKVLAEAFASARLRLGAILFSPQSLAFLPAFCLGLYWYGGETALMITALVFPVFFLVARAKLAETVTTSRQDSVLGVMQPDGFQDIVAARFREARAGGLISTVFQIEIDDHTSLVERHGQRAAEVISTTSADRIAAVLRDRDAVTHLDTFKYAVCLEPVRQMDLELCIQLAGRIQAALEEPIALDATAVCITSSVGFCQQTKVLSRSGEAWLAAAGHALREAHLNGPGAIRAYSEKMQQKSEIRAELREEVAQALEKGQIKPWFQPQISTDTGLVTGFEALARWNHPKRGMVPPGAFLTAIEQAGMLEKLAEVMIFHAFTALKAWDSAGVCVPQVGVNFAGPELSNPKLVDKIIWELDRFDLAPERLAVEVLETVVANSPDDTITRNINGLSKLGCRIDLDDFGTGHASISSIRRFSVSRIKIDRSFVIKADRDPEQQRMISAILTMAERLEVETLAEGVESVGEHALLAQLGCDHVQGFGIGKPMPFDQTLDWIASHNAKLQATPQILPNKLRLEHHHHHH
NETEVAKTSQDTTTASSSSEQNQSSNKTQTSAEVQTNAAAYWDGDYYVKDDGSKAQSEWIFDNYYKAWFYINSDGRYSQNEWHGNYYLKSGGYMAQNEWIYDSNYKSWFYLKSDGAYAHQEWQLIGNKWYYFKKWGYMAKSQWQGSYFLNGQGAMIQNEWLYDPAYSAYFYLKSDGTYANQEWQKVGGKWYYFKKWGYMARNEWQGNYYLTGSGAMATDEVIMDGARYIFAASGELKEKKDLNVGWVHRDGKRYFFNNREEQVGTEHAKKIIDISEHNGRINDWKKVIDENEVDGVIVRLGYSGKEDKELAHNIKELNRLGIPYGVYLYTYAENETDAENDAKQTIELIKKYNMNLSYPIYYDVQNWEYVNKSKRAPSDTDTWVKIINKYMDTMKQAGYQNVYVYSYRSLLQTRLKHPDILKHVNWVAAYTNALEWENPYYSGEKGWQYTSSEYMKGIQGRVDVSVWY
MSEEPAAKRMKNADEFPNLRSEVAGPVKEKLIELDAIQHQLDVMSENAAEEVLKVEQIFNQKRLPIYEKRKKLTTKIDNFWQTAFLNHHLLSTAIPEEQEDLLAALRDLEVQEFEDLRSGFKIIMTFDPNEYFTNEVITKSYHLQSESPSTEITEIEWKENKKPPFKPEDGDSAHTFLEWLTYAALPDSDEIAEVIKDDLYVNPLQYYVMPDMQEVEEDDIEDFLNEERGVDENGQRIPRRNISDSLKVDQDESADGQEGEDEEEEDMGEEEEDGVEEEAEGEEEEEDGAIEEEGGDENVEAHVAVNPENTAE
MSAEVETSEGVDESEKKNSGALEKENQMRMADLSELLKEGTKEAHDRAENTQFVKDFLKGNIKKELFKLATTALYFTYSALEEEMERNKDHPAFAPLYFPMELHRKEALTKDMEYFFGENWEEQVQCPKAAQKYVERIHYIGQNEPELLVAHAYTRYMGDLSGGQVLKKVAQRALKLPSTGEGTQFYLFENVDNAQQFKQLYRARMNALDLNMKTKERIVEEANKAFEYNMQIFNELDQAGSTLARETLEDGFPVHDGKGDMRKCPFYAAEQDKGALEGSSCPFRTAM

Soluble on expression in E. coli, not soluble:
MGSDKIHHHHHHMTKNHKISVDQLQVGTHISLPVSWKDHPFLFSSFKIKDAAQIELIRHLGITEVFFNPEKSDTQPLALDAIQGDSIDLDDMVDASDTDEMMLLKNEMEVKKQDSIDKQQQMRRSINKTEKQFDRSVAMMRSVVSKLGSRPLNAVNDAKELIHNLTDLLLNSDNLVLHLMGDAKPEEGIYHHSLNVSVLCMLLGKGLGWSREEIELIGIGALFHDVGKLKIPSNILNKRTPLSVPEVNFIKQHPLMSINFLKLADNFPAAAEPLIANHHEFLDGSGSPQGLKADKLDNLSQLIAVVNEYDNLCNGNMQTKGKTPFAALSFLYKNYTKKLNKEYVGRMIKTLGIYPPGCIIELSSGQFGLVMSVNLKNILFPRIMVYDPQVPKDQAPIIDLEQEGIKIVRCLPPAALPENIFKYLNPREKVSYGLGSES
DMRVVSVNPAARRLLDLPDDYIPIERPLEEVCAKIPFGPDELGEGESRTWRLPTAEVRRITRMRFFDRSFSRLFFSIETLTEELHSAEKEAYEKLIRLIAHEVNNSTAGIIGVLNAVGDAFDDTPHTPEGEVSEAIALCRDRCMAMSRFITRFAEVVKLPDPTLSSVDLVPLCERCILLMQPLAVETGVKMKMCKEQDSCLVRCDAEQIEQVVINLLRNAIESFAQQNDLAVSATKTVLLCLDRHNLLVEDNGQPISDDVATRLFTPFFSTKPNGQGIGLVVIREVLTRHGWSFSLTTDADGRTRFRMAWP
MIKGSCLCGDIRYTTEAAPQGASMCHCGQCRRQSGGVWSSAFVPEADLTITGPVSWFAASDTAKRGFCARCGSFLFWKANDEDTISFSLGSVDGPTGLRLTKHIFVAGKGDYYDIADDAPHKD
MGSDKIHHHHHHAADRPTQPVRTEVYRLERLDSVLLVDLAVDLTGVHLAPDCTVYLFPLLASENTGDSLSLPPIVLNGPQSDLMYRRRRALGTTSGLEKITPYTVLREGDHALPRIHYRTEVPYAAWMDDVKVWMRDTNCNCDARLVPFAMHTEHIPPLVVERVDTIVIHDTIRLASVASGQSTVASDIPLRKKVTRIQAGYEADIYFPTNEMRILPDHELNRASWMHFVNQVDSIEQDNRNSISGVTVTGYSSPEGYTSNNERLAEKRAKALQAFLENKYGERMEVAVEWVGEDWKQFEKDIEVSDLPERNEILSILRTVSDSNQRKSRLKALNKGKTFGILLREYFPKLRRVSCRIRYVK
MSQPAKVLLLYAHPESQDSVANRVLLKPAIQHNNVTVHDLYARYPDFFIDTPYEQALLREHDVIVFQHPLYTYSCPALLKEWLDRVLSRGFASGPGGNQLVGKYWRSVITTGEPESAYRYDALNRYPMSDVLRPFELTAAMCRMHWMPPIIVYWARRQSPQTLASHAKAYGEWLANPVSAGGY
MANLVYSPKDILQKEFKTKMMNGYDPIEVDEFLDNVIKDYEAYNKELLSLQEENSRLMAKLDQLSKAQPTPRVAQEVPKSAAVTNFDILKRLSNLEREVFGKKLDETPSTPVTPSAPSMPAEPANHDVDNAQTRQF
MRKALKDSKRIVVKVGTSTLTYENGSVNLMRIEKLSRVISDICNMGKEVVLVSSGAIGVGVGKLRLEKKPETIREKQAVAAVGQCALMHIYNKFFGEYSHVVAQVLLTRDVLENERMKNNVCNTFDTLLEKGIIPIVNENDAISIDEIQNILNFGDNDNLSAIVSTLVNADTLIILSDIDGFYDSDPRTNEDSKMLKEVYEITPEIEECAGGAGSNRGTGGMVTKLSAAKVATSNGIDMILANGENPEILIDILNGEDIGTMFVAKKGELEHHHHHH
CGPQYRFVWKGGEGGIGDAANALDSGKIIAIKGIGGYHIACLTEDDVVLRLRKLLNRPQQPFAVMVRDLSSAERVAELSNEERAELLSPARPIVVVRKKLPFEAVAPELDTIGIMLPYTPLHHLLFQELKADYLVMTSANLPGEPMYIDESIMEKMELDGFLVHNLEIANRVDDSVVKYVGGRRLLIRRSRGFVPQPIKIDIGFN
AHHHHHHGSKEEEIHVDPQIVKNITEILKNIKKMKVKQDKRVKWRRENDGRIITFNPITGKICVMNPTLAEIYVMTKNPKGCTFETLIRTLKQRFPSIDEKQLESDILRAMTWLFINGFVYLEDTSKKSKKINIVDVIMEISNQKRGPRQ
MSSSLFAPTIETIDYPFPPKPVPLSDAQKADYKARIKQLLIEKDAVLVAHYYTDPEIQALAEETGGCVSDSLEMARFGRDHPAKTLIVAGVKFMGETAKILSPEKTILMPTLEATCSLDLGCPIDKFSAFCDAHPDHTVVVYANTSAAVKARADWVVTSSIALEIVEHLDSEGKKIIWGPDRHLGSYIAKQTGAEMLMWQGDCIVHDEFKANALRDLKSVYPDAAILVHPESPASVVAMADAVGSTSQLIKAAQTMPNERFIVATDRGIFYKMQQAAPGKTLIEAPTGGNGATCKSCAHCPWMAMNGLKAIEASLSNSDKTTHEIFVDEDLRVKALIPLTRMLDFAKTLNMKVKGNALEHHHHHH
